Results on 68 sequences are retold here after the domain aggregation screens of Martell et al. (2025).

A short description of this data set: soluble fraction after stress (log2 fold change); higher = more stays soluble; pooled small domains, quantitative proteomics. Conditions: stress: pH 4. The method in brief:
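Small protein domains from pooled custom libraries were exposed to pH 4, then quantified with high-throughput quantitative proteomics. The fold change in how much of each domain remains soluble is read as aggregation propensity. It is given as log2, with higher values meaning more stayed soluble.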

In the case of “HMSDPVKQVAMRILDLREISDYTVDKMAEVLNVPVEEYRKYESGEVDMPISFLVKIGEVFHVDMTELLTG”, the “soluble fraction (log2)” value is -0.679.

For “HMSDQTYVKDPETGEIFRVHKRVWETGEFWRDPVWGNILGGVERGSELERLLREEGWRPLQQSLEGFPEQ”, the “soluble fraction (log2)” value was -0.276.

Consider “HMSDRESYGRYRNVSLTLSEYESLKNEYPLYADKYIERLSEYMETAGKHYNNHYATILSWLSKDIK”, for which the “soluble fraction (log2)” value is -0.8.

For “HMSDSGLPLPRFVSLGDDRVNARAGPGFRFPINWVYLRKNFPVEVIDEFGHWRRIKDIDGIEGWIHLSML”, the “soluble fraction (log2)” value is -0.734.

“HMSDTSELESIIAQIIEDNPKSIEDIGAGNQKAYGFLTGQVMKATKGQANPQVANKIIRELVARKLE”: the “soluble fraction (log2)” value was -0.41.

Regarding “HMSDTVDITKLGIAGKTKEAAEALLKENGFSVESKEENSDTIEKGKVISYSPTKPKNGDRITLIVSSGKK”, the “soluble fraction (log2)” value stood at 0.301.

On to “HMSEDTYNTLTKGTRVYNGVDYGAKYGYNPLYYFLNYNDLRIAYGADPAKLVEHYALFGIKENRVANRQIT”, for which the “soluble fraction (log2)” value was -0.247.

As for “HMSEEELETSGLVKRSAKGNLYDIFRHRVMVPIIDVRGAIIAFGGRVLDDSKPKYINSPETMVY”, the “soluble fraction (log2)” value came to 0.0468.

“HMSEEQLKAFLEKVQGDTSLQEKLKAAADANAVVEIAKEAGFSISADDLKNAQSELSEEELE”: the “soluble fraction (log2)” value is -0.257.

“HMSEEVDVPDLVGMQLEEAEKSLEPLGLKLKIAKEIPNSEFEKGKIVDQKTKAGEKVKTGYTIEVTVSSG”: the “soluble fraction (log2)” value is -0.0107.

Take “HMSEFAYPISLNGKTKFNLALSLALTKEEIEKEVLANADVQKFLNGQTPKKLIVVPGKIVNVV”: the “soluble fraction (log2)” value is 0.123.

For “HMSEGEMSQWIIAQAKQQGGGFQPDAARLLGSYVGNNTLRARQEIDKLLTYVGPSRVVTPEDVVLLTA”, the “soluble fraction (log2)” value was -0.0309.

Turning to “HMSEHKFIVPEEFNLKRLDQTVAAQFEKISRTKISKIIKSSLLKVNDKVVTDQSIKIKQDDVITFTEIKDQ”, the “soluble fraction (log2)” value was 0.237.

With “HMSEKRLHLVVDESDVNTRIDKYIADELDGYSRSFIQKLIKDNNVLVNGRAVKPNYNIGISDNIDIVLPKL”, the “soluble fraction (log2)” value worked out at 0.188.

Take “HMSELIDSLTEAVRSAPDAVPLRLHLAELLLADGQRDRAFAQLGQVLAKDPQNARALEMLGVGS”: the “soluble fraction (log2)” value was -0.373.

“HMSELSEVIEKTFEELPEELKLIVKLREIDDLSYDEISNKIGIPIGTVRSRLHRAREILINIIKN”: the “soluble fraction (log2)” value was -1.01.

For the sequence “HMSELSGSQLKAIREEKHIPLEQVASATRIRLSLLEALEMDEYAELGSRTQARGFLKLYADFLGVPFEA”, the “soluble fraction (log2)” value was 0.00575.

For “HMSEMDNMEWVREQYFQNMIYEIGEWVRDKKTGIVGEVVKRGTNYVTVVQEDFSLHKIWLEDLETTEK”, the “soluble fraction (log2)” value was -0.966.

On to “HMSEMLPFDEARRQFERDYLVQLLKLTSGNVSQAARLARRNRTDFYALLGRHQLEPASFKPE”, for which the “soluble fraction (log2)” value is -0.641.

Turning to “HMSEMVIPEDFLAALETNPQAKAFYATLNRQNQYAVYHRLQTAKRPETRAKRIADFVAQLAAGKRF”, the “soluble fraction (log2)” value was -0.00136.

As for “HMSEPHPPFQVVAQFPYKSEYEDDLNFEKDQIITVTSIEDDEWYYGDFKNKGGELVEGIFPKSFVTVK”, the “soluble fraction (log2)” value is -0.867.

As for “HMSEPQYKVLFSNLDDRDGGAIVTALGAMNVPYKYNDTGTALLVPADRVYDARLQLASQGLPRG”, the “soluble fraction (log2)” value is 0.172.

Regarding “HMSEPTVVAINETLTSERLDRYLTTQLPHISRGGIQRLLRKGNILVDGKPAKPTQHPVAGQTVEITWPIPK”, the “soluble fraction (log2)” value was -0.02.

With “HMSEQMQVGELVFQLHRKAIKNLHINVLPPDGFVRVSAPQAMTETAIRTAVISRLPWIRRQQQAFAAQ”, the “soluble fraction (log2)” value was not below 0.43.

For the sequence “HMSERVVEIDPSQLRPGLFIRLPSGWMNHPFLFNQFRINSAEQVEIIQKLGLKTVQYLPERSSTQALPRA”, the “soluble fraction (log2)” value is -0.644.

For “HMSESEDFQNRWRPWRSLLDDETPVVREALVDQLKLFPEEGRLFLQQMSEEDDPISARHAFELIKSLGW”, the “soluble fraction (log2)” value was -1.11.

Take “HMSETAVTYNEDFEADGSLRPNEQAVLDAFTGVLKLTVSELEKKTGLRNVVPVVASLMAKGAVEVSEELK”: the “soluble fraction (log2)” value was -0.763.

Take “HMSETEWGEIYRKVMAAGLIPARSVRERLLALPSIEPLLQAAEAAGSKGMLDETLLDSLLSKT”: the “soluble fraction (log2)” value was -0.539.

Regarding “HMSETLESYTTRLKQLEEIADSFQGVDKTFAIQAGREIRVMVVPEQISDDDMILLARDISNQIEENLDY”, the “soluble fraction (log2)” value is -0.912.

On to “HMSEVIYVAEDNVGQRIDVFLVNKLVDASRANIQKNIVDGVILVNNKNVKANYKLRLGDVVEIRTQ”, for which the “soluble fraction (log2)” value is -0.317.

As for “HMSEVPAAVLVTGGSINLREAPSTDATIIDVAQVGEKMTVLAEKNSWYQVSRGGRNVWVASWVVDPLT”, the “soluble fraction (log2)” value is -0.566.

As to “HMSEVTYQETLRLLRRAIDVLPQQSRQIILLGLSGKNNNEVAEMLGISVNTVKTLKKGAYKSLRNSL”, the “soluble fraction (log2)” value was -0.281.

As to “HMSEYITEGWLREKFGLGWGTEVHLPLDSRLTPAAHQLLEERKIVIKYIDAEGRVFNPDKSGEEAPVQ”, the “soluble fraction (log2)” value is -0.343.

“HMSEYVIVTGEKVNLRVGPGMDYEIAGQVVKGDKLELLASEGDWSKVKTGSGSIYYISSSLVQKA”: the “soluble fraction (log2)” value was -0.334.

Take “HMSFDGFSDRLKSVLNSGKYTQKEAAEKINISEYSFTKYLNGRIPQTEILYKIARLYNKSMEWLLTGKDPI”: the “soluble fraction (log2)” value was -0.158.

For the sequence “HMSFGWELYKGKEGIADTDLHPSGWIRIADKRVFAVSEGEFIEKGLEIIVLSVDGNRIVVRELK”, the “soluble fraction (log2)” value is -0.445.

Consider “HMSFGWETLEGKEGVTDTDLHPSGWVKVGDEKIFVVSQGEFLGKGTDIVVVSVDGNRVVVKELI”, for which the “soluble fraction (log2)” value is -1.11.

As to “HMSFKQARFMMDAANGKALAWLYSHAEVLDRKDQGENIEIHVMISPADLSRFVNAFGYQPVQS”, the “soluble fraction (log2)” value was -0.0667.

With “HMSFMFEISVIRSQYNMQDPESKTGFYNAIAKKLLEFPEKLERDNYTEAVAREYMIPETDLKNLVNSMGG”, the “soluble fraction (log2)” value was -1.66.

For the sequence “HMSFNGTILSNYQKTYPNLAKFTYDQANDALVYEGNFIKLNGYGLSRIDPVFFNMNPDEIFIFIKNG”, the “soluble fraction (log2)” value is -2.69.

For “HMSFNTNENKNLLWELMNKHNLFKDIDNQHYQEVQKLFEEEIVFISNNNKSLDLVEQNKKFLSSIITKLNK”, the “soluble fraction (log2)” value is -1.2.

Regarding “HMSFPQVELNTNKGRIVLELNSEKAPKTVANFLEYVRDGFYDGVIFHRVIDGFMIQGGGFDENFKEKA”, the “soluble fraction (log2)” value was -0.275.

For the sequence “HMSFSPYLVRVSITDLNIRKGPGTNYAKTGKFTGKGVFTIVEMQTGKGSDTGWGRLKSGAGWISLDYTEKI”, the “soluble fraction (log2)” value amounted to 0.0318.

As to “HMSFSQNIGKRIREERLRLNLTQEKLAEDVNLSMAYIGQVERGDRSLTLDNLIIVAKRLGVTIDYLLS”, the “soluble fraction (log2)” value is -0.171.

As for “HMSFTSQSVLIEIVRGTTQLTPLAAAVGANKREVVLAVHRLKQRGLVVSAGLGQYAATEAGRAFLTAGREV”, the “soluble fraction (log2)” value is not below 0.43.

For “HMSFYSVVISQDGSMLVAENRNEIYSNEELLELASEVNEKTGTIGTIGSLMYYKADKGGYTLITFLDNS”, the “soluble fraction (log2)” value was -2.05.

On to “HMSGALDTVVGIRMLKLLSTPIEKSKAFQVGIINKDGKKLRDPTSGERQHYTFLNRFVFKVQYALMRS”, for which the “soluble fraction (log2)” value was -0.072.

Turning to “HMSGDYRPLYPNLPESEKSEAFNLLAGSALPARLDDRTGDIMVPADRYYEARMILANAGFAD”, the “soluble fraction (log2)” value was determined as 0.053.

For “HMSGEMGIIVAKRLPIRSEPDELATRAFVLKAGTRVKIVKHLNGWLEIVHDGKAGYVQDLEVYVRVIG”, the “soluble fraction (log2)” value was -0.445.

With “HMSGEPVKSTLPGNVFKILVAVGDSVKKGQRMFVLEAMKMEIDVNAPKDGLVTSIEVQQGQTVANGQILAK”, the “soluble fraction (log2)” value came to 0.181.

On to “HMSGIESIVIPLKGLDFDMISSTLTPQLKQAIKYDKQSDSIILVGTNAKVNIIAKQVNAMVEVYKLKT”, for which the “soluble fraction (log2)” value was -0.0326.

With “HMSGIGTTIKMLRENKNISQEELGNVLGVSDKTISSWEINRTEPKMGIVQLLADYFGVSTDYLIKG”, the “soluble fraction (log2)” value is -0.201.

As for “HMSGILINGELYKPGEQMSLKQRLSIQARIQMQGEDTVKPEMLKDFYNSGGPLSKEESSEYMKSQN”, the “soluble fraction (log2)” value is -0.321.

Regarding “HMSGIQNNFITRLKKVLAPTIGIAEEISDLLNISIDSAYRRIRGETDFTFEEIYIITRKHKISIDEIYG”, the “soluble fraction (log2)” value was -2.14.

For the sequence “HMSGIVPAAPPLRPDLDIKWHTGDKVRHAKWGEGTIVSVKGEGEETELKIAFPGQGIRPFMQKYAPITR”, the “soluble fraction (log2)” value stood at 0.214.

As to “HMSGLEDIKKKILEDAGIKKGSVKFVKVDKDYDDGIWKYEIDFVYDGKEYEYEIEVETGKILSRKTEKSD”, the “soluble fraction (log2)” value is 0.165.

“HMSGLVPAIGTKGEEGYIRESDIPGSNVKNPEEALAYMEWLKTQPSELLIPLYDEQGNVIGQFAVS”: the “soluble fraction (log2)” value is -0.681.

For the sequence “HMSGMEKLAIQEIEKEIKSFVKGDILIELTGKNRATAYVSEKNVGALIGKKGERINSIEKRLGVGIDVRPY”, the “soluble fraction (log2)” value is -0.275.

For “HMSGMNSDHRVNGNIHTFLIQHDLGTKWSVFTEQLLKQVFRSFLPDKELNFQTTDSTVILKVSLGSDFNEH”, the “soluble fraction (log2)” value is -0.19.

“HMSGPAEDLLAIEGMDKELAYELAARGIRTRDELADQSLDELEAVPGLDPVRAGQLIMAARAHLFENAGQ”: the “soluble fraction (log2)” value is -0.355.

As to “HMSGRSVSYSEFMSRVEAGQVSSVTLDGERVEVTGSDGSRYVTIAPSDATLTDKLVAKGVEVRADP”, the “soluble fraction (log2)” value is 0.196.

With “HMSGSKEQQIVILNNILERQLQAFGLQGNREFPMVTLKNIYNSLSKIIENAGLKNVENYFVNPEQGKQM”, the “soluble fraction (log2)” value is -0.394.

For “HMSGTFIGGELVKPGEPLTPMQRAAITMGLQMGNTYSPEIMEKYNNAGGSPSKEEFENYQKNKS”, the “soluble fraction (log2)” value is 0.22.

For the sequence “HMSHGFFELKTTQKEALIKLLDSHPNFTHTKTEADLTTAFLKLPMDAEQFNKLLFTNGIVLSHLVKRK”, the “soluble fraction (log2)” value is -0.276.

With “HMSHGYVEMQAKDDQVLLAALKNHPWFEKVSIDEETGLTKAILTQPIEAEELNSMLFEKGIVLSHLVKRK”, the “soluble fraction (log2)” value was -1.2.

In the case of “HMSHISLGQRYKIEGYLQINLKRTQIAKEIGLPKKTVNQEIKRNSNPQTGIYKAEEAHQLYLDRMQKKRK”, the “soluble fraction (log2)” value amounted to 0.426.

As to “HMSHKYKLTVPETGEGTRVDKFLSSALTELSRTRLKSLIEEGQVTLGGVKLTNPSHRVKSGDELNIEIPVP”, the “soluble fraction (log2)” value was determined as 0.0568.

On to “HMSHPNAPLTPEGRRRLAVLIVEDGWTIRRAAERFQVSPATASKWARRYRAGESLTDRSSRP”, for which the “soluble fraction (log2)” value was 0.0223.
